Reference: US20140056907A1 (Regeneron, published 2014)

How the values were obtained:
human ASIC1 = biological target: T1, human ASIC1 (human, UniProt P78348 1-528); assay: cell-based or functional assay
T1 sequence: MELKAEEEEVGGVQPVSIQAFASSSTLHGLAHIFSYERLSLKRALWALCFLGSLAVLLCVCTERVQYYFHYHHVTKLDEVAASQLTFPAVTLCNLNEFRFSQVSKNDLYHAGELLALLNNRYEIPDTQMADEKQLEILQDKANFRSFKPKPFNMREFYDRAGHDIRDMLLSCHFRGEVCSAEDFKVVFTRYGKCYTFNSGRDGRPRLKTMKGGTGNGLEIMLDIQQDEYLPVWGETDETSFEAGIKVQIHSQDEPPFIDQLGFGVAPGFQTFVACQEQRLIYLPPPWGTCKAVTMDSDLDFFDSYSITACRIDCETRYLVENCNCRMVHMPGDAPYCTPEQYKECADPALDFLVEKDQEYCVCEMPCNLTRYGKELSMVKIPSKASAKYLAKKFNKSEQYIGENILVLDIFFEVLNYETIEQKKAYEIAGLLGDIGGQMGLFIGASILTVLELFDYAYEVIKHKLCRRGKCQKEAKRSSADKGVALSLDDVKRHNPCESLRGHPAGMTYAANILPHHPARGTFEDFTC

mouse ASIC1a = biological target: T2, mouse ASIC1a (mouse, UniProt Q6NXK8 1-526); assay: FACS, 3T3/mASIC1a cells
T2 construct: whole, on cells; Expressed on stably transfected 3T3 cells (3T3/mASIC1a); also called mASIC1a
T2 sequence (looked up): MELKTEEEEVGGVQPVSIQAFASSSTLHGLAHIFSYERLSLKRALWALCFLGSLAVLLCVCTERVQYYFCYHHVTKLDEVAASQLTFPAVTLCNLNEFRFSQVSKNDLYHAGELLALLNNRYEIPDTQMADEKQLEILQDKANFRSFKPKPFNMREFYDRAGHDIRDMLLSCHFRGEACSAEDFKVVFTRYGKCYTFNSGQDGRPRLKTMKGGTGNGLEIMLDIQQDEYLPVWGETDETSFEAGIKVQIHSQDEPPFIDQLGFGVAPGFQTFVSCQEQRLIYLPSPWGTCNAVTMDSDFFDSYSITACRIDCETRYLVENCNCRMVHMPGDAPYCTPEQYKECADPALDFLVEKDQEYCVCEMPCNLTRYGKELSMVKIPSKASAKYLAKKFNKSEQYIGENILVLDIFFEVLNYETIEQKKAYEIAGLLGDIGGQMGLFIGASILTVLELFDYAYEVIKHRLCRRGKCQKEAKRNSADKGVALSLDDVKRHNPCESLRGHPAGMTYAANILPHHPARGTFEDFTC
Text: To further characterize anti-ASIC1 antibodies, their ability to bind either (a) a mouse fibroblast 3T3 cell line stably transfected to overexpress full length human ASIC1 (3T3/hASIC1; amino acids 1-528 of NCBI accession number NP_{—}001086.2 [SEQ ID NO:401]), (b) a 3T3 cell line stably transfected to over express full length mouse ASIC1a (3T3/mASIC1a; amino acids 1-526 of NCBI accession number NP_{—}033727), or (c) a ND7 cell line (ECACC, #92090903) that is a fusion cell line of mouse neuroblastoma and rat dorsal root ganglia that endogenously expresses rat ASIC1, was determined using flow cytometry (FACS). ND7 cells were differentiated by replacing the culture media with low-serum media (0.5% FBS) containing 1 mM dibutyryl-cAMP (Cat. No. sc-201567A, Santa Cruz Biotechnology, Inc., Santa Cruz, Calif.). FACS binding was tested for some antibodies on both undifferentiated ND7 cells and differentiated ND7 cells.
To perform the FACS binding experiments, adherent cells were collected using 1 mM EDTA in PBS, then washed, and re-suspended in cold PBS containing 5% FBS. For each binding experiment, each anti-ASIC1 antibody (at final concentrations of 10 nM of purified antibodies or 3.3 nM for antibody supernatants for binding to 3T3/hASIC1 cells and 5 nM for binding to 3T3/mASIC1a or ND7 cells) was added to 250,000 cells in 500 μL of PBS with 5% FBS. After incubation for 20 minutes at room temperature, a secondary antibody which recognizes human Fc (Cat. No. 109-136-098, Jackson ImmunoResearch Laboratories, Inc., West Grove, Pa.) or mouse Fc (Cat. No. 550826, BD Biosciences, San Jose, Calif.) and is conjugated to allophycocyanin, was then added to the cell mixture at a final concentration of 13.3 nM. After incubating for 20 minutes on ice, the cells were washed and resuspended in PBS containing 5% FBS, then sorted and analyzed on a flow cytometer (FACSCalibur, BD Biosciences, San Jose, Calif.) to determine relative binding by the candidate antibodies to the tested cell lines. Histograms of cells stained with anti-ASIC1 antibodies were compared with those of cells stained with secondary antibody alone. Percentage of ASIC1 signal over secondary antibody alone was calculated using FlowJo software (Tree Star, Ashland, Oreg.).

B1: H3M7102N (antibody, V domains shown)
VH: EVQLLASGGGLVQPGGSLRLSCAASGFTFSSFAMSWVRQAPGKGLEWVSGISGSGGSTYYADSVKGRFTISRDNSKNTLYLQMNSLRAEDTAAYYCAKEAYKWQPWGQGIRVTVSS
VL: DIQMTQSPSTLSASVGDRVSITCRASQSISSWLAWYQQKPGKAPKLLIYKASNLDSGVPSRFSGSGSGTDFTLTISSLQPDDFATYYCQQYNSYSYTFGQGTKLEIK
notes: Chimeric: human variable, mouse constant domains; H3M prefix marks the Fc, isotype not spelled out
- apparent IC50, human ASIC1 current, Q-Patch (human ASIC1): ≤ 10 nM
- binding result (mouse ASIC1a): binds

B2: H3M6726N (antibody, V domains shown)
VH: EVQLLESGGVLVQPGGSLRLSCAASGFNFNNYDMSWVRQAPGKGLEWVSVISASGRNTYYADSVKGRFTISRDNSKISLYLQMNSLRPEDTAVYYCAKDHLVHYYYGMDVWGQGTTVTVSS
VL: DIMMTQSPLSLSVTPGEPASISCRSSQSLLHSNGYNYLDWYLQKSGQSPHLLIYLGSNRASGVPDRFSGSGSGTDFTLKISRVEAEDGGVYYCMQALQTPRTFGQGTKVEIK
notes: as for B1
- apparent IC50, human ASIC1 current, Q-Patch (human ASIC1): > 10 nM
- binding result (mouse ASIC1a): binds
